Assay results as given in patent US20170334988A1 (WALTER AND ELIZA HALL INSTITUTE OF MEDICAL RESEARCH, published 2017).
Ends that are not written are not given here. * marks the point of attachment. Biotin = O=C1N[C@H]2[C@H](CS[C@H]2CCCCC(=O)*)N1

Key:
[1] = target: T1, Bak loop peptide 46EQEAEGVAAPADPEMVTLPLQPSS69 (human); test: ITC at 25 °C, Ab 5 µM, peptide 100 µM, OneSites model
T1 construct: also called Bak peptide (residues E46 to S69 of human Bak)
T1 peptide: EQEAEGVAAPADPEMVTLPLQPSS
Procedure: (§1) FIG. 19: Isothermal Titration Microcalorimetry binding profile of 26/05-7D10-17-13 with loop peptide (⁴⁶[…]⁶⁹; SEQ ID NO: 21) at 25° C. A) Titration with Ab at 5 μM and peptide at 100 μM.
(§2) ITC experiments were performed using a MicroCal iTC 200 instrument from GE. Injections of 2.43 μl of peptide solution were added from a computer-controlled microsyringe at an interval of 3 min into the sample solution of antibody (cell volume=300 μl) with stirring at 1000 rpm. Titrations were done at pH 7.2 using […] phosphate-buffered saline. The experimental data were fitted to a theoretical titration curve using software supplied by Microcal.

[2] = target: T1, Bak loop peptide …; test: ITC at 25 °C, Ab 2.5 µM, peptide 50 µM, OneSites model
Procedure: as §1, §2

[3] = target: T1, Bak loop peptide …; test: ITC at 25° C., Ab at 2.5 µM and peptide at 50 µM
Procedure: as §1, §2

EEQVAQDT = target: T2, EEQVAQDT; test: peptide ELISA, A405
T2 construct: member of m19; also called hBak 8-mer 24-31
T2 peptide: Biotin-SGSGEEQVAQDT

VAAPADPE = target: T3, VAAPADPE; test: peptide ELISA, A405
T3 construct: member of m19; also called hBak 8-mer 52-59
T3 peptide: Biotin-SGSGVAAPADPE

VAQDTEEV = target: T4, VAQDTEEV; test: peptide ELISA, A405
T4 construct: member of m19; also called hBak 8-mer 27-34
T4 peptide: Biotin-SGSGVAQDTEEV

AEGVAAPA = target: T5, AEGVAAPA; test: peptide ELISA, A405
T5 construct: member of m19; also called hBak 8-mer 49-56
T5 peptide: Biotin-SGSGAEGVAAPA

EGVAAPAD = target: T6, EGVAAPAD; test: peptide ELISA, A405
T6 construct: member of m19; also called hBak 8-mer 50-57
T6 peptide: Biotin-SGSGEGVAAPAD

EQVAQDTE = target: T7, EQVAQDTE; test: peptide ELISA, A405
T7 construct: member of m19; also called hBak 8-mer 25-32
T7 peptide: Biotin-SGSGEQVAQDTE

QVAQDTEE = target: T8, QVAQDTEE; test: peptide ELISA, A405
T8 construct: member of m19; also called hBak 8-mer 26-33
T8 peptide: Biotin-SGSGQVAQDTEE

AQDTEEVF = target: T9, AQDTEEVF; test: peptide ELISA, A405
T9 construct: member of m19; also called hBak 8-mer 28-35
T9 peptide: Biotin-SGSGAQDTEEVF

EEVFRSYV = target: T10, EEVFRSYV; test: peptide ELISA, A405
T10 construct: member of m19; also called hBak 8-mer 32-39
T10 peptide: Biotin-SGSGEEVFRSYV

[4] = target: T11, human Bak 8-mer peptide YVFYRHQQ (residues 38-45) (human); test: peptide ELISA, A405
T11 peptide: Biotin-SGSGYVFYRHQQ

DTEEVFRS = target: T12, DTEEVFRS; test: peptide ELISA, A405
T12 construct: member of m19; also called hBak 8-mer 30-37
T12 peptide: Biotin-SGSGDTEEVFRS

VFRSYVFY = target: T13, VFRSYVFY; test: peptide ELISA, A405
T13 construct: member of m19; also called hBak 8-mer 34-41
T13 peptide: Biotin-SGSGVFRSYVFY

EAEGVAAP = target: T14, EAEGVAAP; test: peptide ELISA, A405
T14 construct: member of m19; also called hBak 8-mer 48-55
T14 peptide: Biotin-SGSGEAEGVAAP

FRSYVFYR = target: T15, FRSYVFYR; test: peptide ELISA, A405
T15 construct: member of m19; also called hBak 8-mer 35-42
T15 peptide: Biotin-SGSGFRSYVFYR

GVAAPADP = target: T16, GVAAPADP; test: peptide ELISA, A405
T16 construct: member of m19; also called hBak 8-mer 51-58
T16 peptide: Biotin-SGSGGVAAPADP

SEEQVAQD = target: T17, SEEQVAQD; test: peptide ELISA, A405
T17 construct: member of m19; also called hBak 8-mer 23-30
T17 peptide: Biotin-SGSGSEEQVAQD

TEEVFRSY = target: T18, TEEVFRSY; test: peptide ELISA, A405
T18 construct: member of m19; also called hBak 8-mer 31-38
T18 peptide: Biotin-SGSGTEEVFRSY

SYVFYRHQ = target: T19, SYVFYRHQ; test: peptide ELISA, A405
T19 construct: member of m19; also called hBak 8-mer 37-44
T19 peptide: Biotin-SGSGSYVFYRHQ

RSYVFYRH = target: T20, RSYVFYRH; test: peptide ELISA, A405
T20 construct: member of m19; also called hBak 8-mer 36-43
T20 peptide: Biotin-SGSGRSYVFYRH

EVFRSYVF = target: T21, EVFRSYVF; test: peptide ELISA, A405
T21 construct: member of m19; also called hBak 8-mer 33-40
T21 peptide: Biotin-SGSGEVFRSYVF

QDTEEVFR = target: T22, QDTEEVFR; test: peptide ELISA, A405
T22 construct: member of m19; also called hBak 8-mer 29-36
T22 peptide: Biotin-SGSGQDTEEVFR

human Bak G51C = target: T23, human Bak G51C (human, UniProt Q16611 2-211); test: immunoprecipitation from membranes incubated with or without tBid, western blot
T23 construct: whole, on cells; In membrane fractions
T23 sequence (looked up): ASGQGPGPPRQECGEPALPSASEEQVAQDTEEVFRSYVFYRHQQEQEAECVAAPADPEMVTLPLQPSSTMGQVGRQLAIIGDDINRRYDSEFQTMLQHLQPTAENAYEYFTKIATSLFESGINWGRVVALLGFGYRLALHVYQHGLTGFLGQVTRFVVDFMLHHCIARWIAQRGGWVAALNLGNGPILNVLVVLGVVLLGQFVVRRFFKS
Procedure: FIG. 4: Ability of antibodies to recognize Bak in different conformations. Membrane fractions from cells expressing Bak (as indicated) were incubated (30 min, 30° C.) with (+) or without (−) Bid, solubilized with digitonin, and incubated with the Bak antibodies shown. Bak in immunoprecipitates and whole cell lysate controls was detected by western blot using the 4B5 antibody. Data are representative of at least two independent experiments ND, not done.
Following activation of Bak in membrane fractions, samples were solubilized by incubation with 1% digitonin on ice for at least 30 min. […] After removing beads by repeated washes in Onyx buffer, lysates were incubated with constant agitation for 2 h at 4° C. with 4 ug/ml anti-Bak antibody, followed by incubation for 1 h at 4° C. with additional pre-washed Sepharose G beads. Immune complexes were isolated by centrifugation (13000 rpm, 2 min, 4° C.), washed 4 times with Onyx buffer, resuspended in sample buffer containing 2-mercaptoethanol and analyzed by western blotting.

[5] = target: T1, Bak loop peptide …; test: ITC at 25° C., Ab at 5 µM and peptide at 100 µM
Procedure: as §1, §2

[6] = target: T24, mouse Bak 15-mer peptide 71-85; test: peptide ELISA, A405
T24 construct: member of m18
T24 peptide: Biotin-SGSGQVGRQLALIGDDINR
Procedure: (§3) Since most epitopes were linear, further mapping was performed using peptide arrays. Two arrays of overlapping 15-mer peptides (each offset by 10 residues) that collectively spanned the entire sequences of human and mouse Bak were designed. Biotinylated peptides were immobilized on streptavidin-coated plates and each antibody tested by ELISA.

[7] = target: T25, human Bak 15-mer peptide 81-95; test: peptide ELISA, A405
T25 construct: member of m17
T25 peptide: Biotin-SGSGIGDDINRRYDSEFQT
Procedure: as §3

[8] = target: T26, human Bak 15-mer peptide 31-45; test: peptide ELISA, A405
T26 construct: member of m17
T26 peptide: Biotin-SGSGTEEVFRSYVFYRHQQ
Procedure: as §3

[9] = target: T27, human Bak 15-mer peptide for residues 11-25 (human, UniProt Q16611 11-25); test: peptide ELISA, A405
T27 construct: range 11-25
T27 peptide: Biotin-SGSGRQECGEPALPSASEE
Procedure: as §3

[10] = target: T28, mouse Bak 15-mer peptide 81-95; test: peptide ELISA, A405
T28 construct: member of m18
T28 peptide: Biotin-SGSGDDINRRYDTEFQNLL
Procedure: as §3

[11] = target: T29, mouse Bak 15-mer peptide 31-45; test: peptide ELISA, A405
T29 construct: member of m18
T29 peptide: Biotin-SGSGEVFRSYVFYLHQQEQ
Procedure: as §3

[12] = target: T30, human Bak 15-mer peptide 51-65; test: peptide ELISA, A405
T30 construct: member of m17
T30 peptide: Biotin-SGSGGVAAPADPEMVTLPL
Procedure: as §3

[13] = target: T31, mouse Bak 15-mer peptide 41-55; test: peptide ELISA, A405
T31 construct: member of m18
T31 peptide: Biotin-SGSGHQQEQETQGAAAPAN
Procedure: as §3

[14] = target: T32, human Bak 15-mer peptide 1-15; test: peptide ELISA, A405
T32 construct: member of m17
T32 peptide: Biotin-SGSGMASGQGPGPPRQECG
Procedure: as §3

[15] = target: T33, mouse Bak 15-mer peptide 21-35; test: peptide ELISA, A405
T33 construct: member of m18
T33 peptide: Biotin-SGSGSEQQVAQDTEEVFRS
Procedure: as §3

[16] = target: T34, human Bak 15-mer peptide 21-35; test: peptide ELISA, A405
T34 construct: member of m17
T34 peptide: Biotin-SGSGSASEEQVAQDTEEVF
Procedure: as §3

[17] = target: T35, human Bak 15-mer peptide 41-55; test: peptide ELISA, A405
T35 construct: member of m17
T35 peptide: Biotin-SGSGYRHQQEQEAEGVAAP
Procedure: as §3

[18] = target: T1, Bak loop peptide …; test: SPR, BIAcore 3000
[19] = target: T36, human BakΔC25 protein (residues 1-186 of SwissProt Accession No. Q16611.1) (human, UniProt Q16611 1-186); test: SPR, BIAcore 3000
T36 construct: also called humanAC25 Bak protein; hBakAC
T36 sequence: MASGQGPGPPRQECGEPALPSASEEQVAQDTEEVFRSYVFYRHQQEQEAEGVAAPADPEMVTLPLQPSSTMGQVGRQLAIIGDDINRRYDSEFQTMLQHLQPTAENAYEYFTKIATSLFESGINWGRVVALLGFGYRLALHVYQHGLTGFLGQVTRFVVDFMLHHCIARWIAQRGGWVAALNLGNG

B1: 26/05-7D10-17-13 antibody (antibody, V domains shown)
VH: EVELVESGGDLVQPGRSLKLSCAASGFTFSNLAMAWVRQTPTKGLEWVASISPAGITTYYRDSVKGRFTISRDNARNTQYLQMDSLRSEDTATYYCARHTGKSSFFDYWGQGVMVTVSS
VL: DVQMTQSPSYLAASPGESVSISCKATENINTYLAWYQAKPGKTTKLLLYSGSTLQSGTPSRFSGSGSGTDFTLTISSLEPEDFAVYYCQQHNEYPLTFGSGTKLEIK
notes: Rat IgG monoclonal antibody from hybridoma SW1 (ECACC 15041601), WEHI monoclonal antibody facility; also called 26/05-7D10-17-13 MAb; 26/05-7D 10-17-13 anti-Bak antibody
Ka [1]: 2.34e+08 M⁻¹ | ΔH [1]: -23.1 kcal/mol | ΔS [1]: -39.2 cal/mol/deg | Ka [2]: 2.26e+08 M⁻¹ | ΔH [2]: -29.3 kcal/mol | ΔS [2]: -60 cal/mol/deg | Kd [3]: < 4 nM | binding result (EEQVAQDT): no binding | binding result (VAAPADPE): binds | binding result (VAQDTEEV): no binding | binding result (AEGVAAPA): binds | binding result (EGVAAPAD): binds | binding result (EQVAQDTE): no binding | binding result (QVAQDTEE): no binding | binding result (AQDTEEVF): no binding | binding result (EEVFRSYV): no binding | binding result [4]: no binding | binding result (DTEEVFRS): no binding | binding result (VFRSYVFY): no binding | binding result (EAEGVAAP): binds | binding result (FRSYVFYR): no binding | binding result (GVAAPADP): binds | binding result (SEEQVAQD): no binding | binding result (TEEVFRSY): no binding | binding result (SYVFYRHQ): no binding | binding result (RSYVFYRH): no binding | binding result (EVFRSYVF): no binding | binding result (QDTEEVFR): no binding | binding result (human Bak G51C): no binding | Kd [5]: < 4.3 nM | binding result [6]: no binding | binding result [7]: no binding | binding result [8]: no binding | binding result [9]: no binding | binding result [10]: no binding | binding result [11]: no binding | binding result [12]: binds | binding result [13]: binds | binding result [14]: no binding | binding result [15]: no binding | binding result [16]: no binding | binding result [17]: binds | Kd [18]: 2.9 nM | Kd [19]: 0.466 nM
